In the Human Domainome abundance scans (Beltran et al. 2025):
± gives the uncertainty stated by the source.

B1: Advillin, residues 785 to 819; numbered along this chain, O75366 (parent)
chain: LSEQDFVSVFGITRGQFAALPGWKQLQMKKEKGLF

Variants of: B1
Experiment: abundance fitness (aPCA) (normalised: wild type 0, dead -1); higher = more abundant; growth selection in yeast, the domain comes from the species named
Settings: Homo sapiens

Compared with LSEQDFVSVFGITRGQFACLPGWKQLQMKKEKGLF [A19C], LSEQDFVSVFGITRGQFKALPGWKQLQMKKEKGLF [A18K] is higher in abundance fitness: -0.209 ± 0.16 for the first, 0.188 ± 0.12 for the second.

LSEQDFVSVFGITRGQFRALPGWKQLQMKKEKGLF [A18R] and LSEQDFVSVFGITRGQFLALPGWKQLQMKKEKGLF [A18L] are within error of each other in abundance fitness: -0.197 ± 0.067 for the first, -0.062 ± 0.078 for the second.

First: LSEQDFVSVFGITRGQFQALPGWKQLQMKKEKGLF [A18Q]
Second: LSEQDFVSVFGITRGQFHALPGWKQLQMKKEKGLF [A18H]
The abundance fitness of the first is higher: -0.05 ± 0.1 for the first, -0.362 ± 0.19 for the second.

LSEQDFVSVFGITRGQFCALPGWKQLQMKKEKGLF [A18C] and LSEQDFVSVFGITRGQFMALPGWKQLQMKKEKGLF [A18M] are within error of each other in abundance fitness: -0.079 ± 0.09 for the first, -0.3 ± 0.48 for the second.

First: LSEQDFVSVFGITRGQFEALPGWKQLQMKKEKGLF [A18E]
Second: LSEQDFVSVFGITRGQFWALPGWKQLQMKKEKGLF [A18W]
The abundance fitness of the first is higher: 0.214 ± 0.063 for the first, -0.358 ± 0.088 for the second.

Going from LSEQDFVSVFGITRGQFNALPGWKQLQMKKEKGLF [A18N] to LSEQDFVSVFGITRGQFGALPGWKQLQMKKEKGLF [A18G], the abundance fitness falls from 0.154 ± 0.1 to -0.103 ± 0.059.

LSEQDFVSVFGITRGQFSALPGWKQLQMKKEKGLF [A18S] and LSEQDFVSVFGITRGQFIALPGWKQLQMKKEKGLF [A18I] are within error of each other in abundance fitness: -0.201 ± 0.065 for the first, -0.1 ± 0.1 for the second.

LSEQDFVSVFGITRGQFPALPGWKQLQMKKEKGLF [A18P] and LSEQDFVSVFGITRGVFAALPGWKQLQMKKEKGLF [Q16V] are within error of each other in abundance fitness: -0.438 ± 0.16 for the first, -0.422 ± 0.12 for the second.

Going from LSEQDFVSVFGITRGGFAALPGWKQLQMKKEKGLF [Q16G] to LSEQDFVSVFGITRGTFAALPGWKQLQMKKEKGLF [Q16T], the abundance fitness rises from -0.378 ± 0.069 to -0.192 ± 0.077.

LSEQDFVSVFGITRGDFAALPGWKQLQMKKEKGLF [Q16D] and LSEQDFVSVFGITRGCFAALPGWKQLQMKKEKGLF [Q16C] are within error of each other in abundance fitness: -0.347 ± 0.2 for the first, -0.43 ± 0.097 for the second.

LSEQDFVSVFGITRGMFAALPGWKQLQMKKEKGLF [Q16M] and LSEQDFVSVFGITRGIFAALPGWKQLQMKKEKGLF [Q16I] are within error of each other in abundance fitness: -0.279 ± 0.12 for the first, -0.396 ± 0.41 for the second.

LSEQDFVSVFGITRGPFAALPGWKQLQMKKEKGLF [Q16P] and LSEQDFVSVFGITRGWFAALPGWKQLQMKKEKGLF [Q16W] are within error of each other in abundance fitness: -0.355 ± 0.29 for the first, -0.626 ± 0.1 for the second.

LSEQDFVSVFGITRGYFAALPGWKQLQMKKEKGLF [Q16Y] and LSEQDFVSVFGITRGRFAALPGWKQLQMKKEKGLF [Q16R] are within error of each other in abundance fitness: -0.252 ± 0.17 for the first, -0.281 ± 0.056 for the second.

LSEQDFVSVFGITRGFFAALPGWKQLQMKKEKGLF [Q16F] and LSEQDFVSVFGITRGLFAALPGWKQLQMKKEKGLF [Q16L] are within error of each other in abundance fitness: -0.302 ± 0.13 for the first, -0.382 ± 0.073 for the second.

First: LSEQDFVSVFGITRGEFAALPGWKQLQMKKEKGLF [Q16E]
Second: LSEQDFVSVFGITRGSFAALPGWKQLQMKKEKGLF [Q16S]
The abundance fitness of the first is higher: -0.053 ± 0.077 for the first, -0.211 ± 0.067 for the second.

LSEQDFVSVFGITRGHFAALPGWKQLQMKKEKGLF [Q16H] and LSEQDFVSVFGITRGQMAALPGWKQLQMKKEKGLF [F17M] are within error of each other in abundance fitness: -0.183 ± 0.15 for the first, -0.249 ± 0.081 for the second.

LSEQDFVSVFGITRGQAAALPGWKQLQMKKEKGLF [F17A] and LSEQDFVSVFGITRGQQAALPGWKQLQMKKEKGLF [F17Q] are within error of each other in abundance fitness: -0.389 ± 0.059 for the first, -0.344 ± 0.18 for the second.

LSEQDFVSVFGITRGQSAALPGWKQLQMKKEKGLF [F17S] and LSEQDFVSVFGITRGQLAALPGWKQLQMKKEKGLF [F17L] are within error of each other in abundance fitness: -0.454 ± 0.058 for the first, -0.476 ± 0.082 for the second.

LSEQDFVSVFGITRGQWAALPGWKQLQMKKEKGLF [F17W] and LSEQDFVSVFGITRGQPAALPGWKQLQMKKEKGLF [F17P] are within error of each other in abundance fitness: -0.441 ± 0.08 for the first, -0.631 ± 0.11 for the second.

Going from LSEQDFVSVFGITRGQTAALPGWKQLQMKKEKGLF [F17T] to LSEQDFVSVFGITRGQHAALPGWKQLQMKKEKGLF [F17H], the abundance fitness falls from -0.486 ± 0.12 to -0.965 ± 0.22.

LSEQDFVSVFGITRGQCAALPGWKQLQMKKEKGLF [F17C] and LSEQDFVSVFGITRGQEAALPGWKQLQMKKEKGLF [F17E] are within error of each other in abundance fitness: -0.435 ± 0.14 for the first, -0.33 ± 0.07 for the second.

LSEQDFVSVFGITRGQKAALPGWKQLQMKKEKGLF [F17K] and LSEQDFVSVFGITRGQVAALPGWKQLQMKKEKGLF [F17V] are within error of each other in abundance fitness: -0.479 ± 0.078 for the first, -0.396 ± 0.072 for the second.

LSEQDFVSVFGITRGQIAALPGWKQLQMKKEKGLF [F17I] and LSEQDFVSVFGITRGQGAALPGWKQLQMKKEKGLF [F17G] are within error of each other in abundance fitness: -0.538 ± 0.12 for the first, -0.37 ± 0.055 for the second.

Compared with LSEQDFVSVFGITRGQYAALPGWKQLQMKKEKGLF [F17Y], LSEQDFVSVFGITRGQRAALPGWKQLQMKKEKGLF [F17R] is higher in abundance fitness: -0.969 ± 0.14 for the first, -0.554 ± 0.058 for the second.

LSEQDFVSVFGITRVQFAALPGWKQLQMKKEKGLF [G15V] and LSEQDFVSVFGITRRQFAALPGWKQLQMKKEKGLF [G15R] are within error of each other in abundance fitness: -0.077 ± 0.061 for the first, -0.089 ± 0.048 for the second.

LSEQDFVSVFGITRFQFAALPGWKQLQMKKEKGLF [G15F] and LSEQDFVSVFGITRLQFAALPGWKQLQMKKEKGLF [G15L] are within error of each other in abundance fitness: -0.193 ± 0.083 for the first, -0.215 ± 0.069 for the second.

LSEQDFVSVFGITRKQFAALPGWKQLQMKKEKGLF [G15K] and LSEQDFVSVFGITREQFAALPGWKQLQMKKEKGLF [G15E] are within error of each other in abundance fitness: 0.15 ± 0.065 for the first, 0.238 ± 0.064 for the second.

LSEQDFVSVFGITRTQFAALPGWKQLQMKKEKGLF [G15T] and LSEQDFVSVFGITRHQFAALPGWKQLQMKKEKGLF [G15H] are within error of each other in abundance fitness: -0.052 ± 0.063 for the first, 0.008 ± 0.11 for the second.

Going from LSEQDFVSVFGITRNQFAALPGWKQLQMKKEKGLF [G15N] to LSEQDFVSVFGITRSQFAALPGWKQLQMKKEKGLF [G15S], the abundance fitness rises from -0.05 ± 0.11 to 0.203 ± 0.071.

First: LSEQDFVSVFGITRQQFAALPGWKQLQMKKEKGLF [G15Q]
Second: LSEQDFVSVFGITRWQFAALPGWKQLQMKKEKGLF [G15W]
The abundance fitness of the first is higher: 0.11 ± 0.083 for the first, -0.395 ± 0.07 for the second.

Going from LSEQDFVSVFGITRPQFAALPGWKQLQMKKEKGLF [G15P] to LSEQDFVSVFGITRAQFAALPGWKQLQMKKEKGLF [G15A], the abundance fitness rises from -0.413 ± 0.1 to 0.16 ± 0.052.

LSEQDFVSVFGITRDQFAALPGWKQLQMKKEKGLF [G15D] and LSEQDFVSVFGITRCQFAALPGWKQLQMKKEKGLF [G15C] are within error of each other in abundance fitness: 0.009 ± 0.093 for the first, -0.152 ± 0.1 for the second.

Compared with LSEQDFVSVFGITRIQFAALPGWKQLQMKKEKGLF [G15I], LSEQDFVSVFGITWGQFAALPGWKQLQMKKEKGLF [R14W] is lower in abundance fitness: 0.042 ± 0.076 for the first, -0.349 ± 0.066 for the second.

First: LSEQDFVSVFGITQGQFAALPGWKQLQMKKEKGLF [R14Q]
Second: LSEQDFVSVFGITTGQFAALPGWKQLQMKKEKGLF [R14T]
The abundance fitness of the first is higher: -0.037 ± 0.074 for the first, -0.205 ± 0.061 for the second.

LSEQDFVSVFGITVGQFAALPGWKQLQMKKEKGLF [R14V] and LSEQDFVSVFGITSGQFAALPGWKQLQMKKEKGLF [R14S] are within error of each other in abundance fitness: -0.264 ± 0.079 for the first, -0.169 ± 0.058 for the second.
